Reference: the supplement of paper PMC10126150
± gives the standard deviation of the averaged measurements.

Tested on: ATP
Test: switch fluorescence ratio, 500 uM ATP over buffer (Cy3 cluster intensity, sum of 5 cycles each) (fold (ratio)); higher = stronger signal-on switching upon ATP binding; sequences stand for … in TCGTCGGCAGCGTCAGATGTGTATAAGAGACAGTTTTTTTTTTTTTTTTTTTTTTTTT…TC
Conditions: aptamer strand: ATP DNA aptamer (quencher-CACCTGGGGGAGTATTGCGGAGGAAGG + anchor), 100 nM annealed; ATP concentration: 500 uM
Summary of the method: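 Switching-strand clusters labelled with Cy3 on a modified Illumina MiSeq flow-cell were annealed to 100 nM quencher-labelled ATP aptamer, imaged in selection buffer, and re-imaged after 15 min with 500 uM ATP at 22 °C. This was done over five cycles with NaOH stripping and re-annealing in between. The fluorescence ratio is summed target-cycle over summed buffer-cycle Cy3 intensity per cluster, averaged per switch-domain sequence, excluding clusters outside 100-1000 RFU.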
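Further: ATP exposure 15 min at 22 °C before imaging.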

Sequence | switch fluorescence ratio
TTTGGATTTC | 1 ± 0.013
TTTGGCCTAG | 1.02 ± 0.041
TTTGGCGGAG | 0.992 ± 0.03
TTTGGCTAAA | 1 ± 0.044
TTTGGCTGTT | 0.998 ± 0.029
TTTGGCTTAA | 0.9962 ± 0.006
TTTGGCTTTG | 1.02 ± 0.05
TTTGGGATCG | 0.98 ± 0.045
TTTGGGATCT | 0.9881 ± 0.0098
TTTGGGATTG | 1.07 ± 0.015
TTTGGGCGAG | 0.976 ± 0.045
TTTGGGCTTC | 1.0067 ± 0.00097
TTTGGGGAAG | 1.01 ± 0.025
TTTGGGGAGG | 1.02 ± 0.058
TTTGGGGCAT | 1.032 ± 0.0027
TTTGGGGGAT | 1.02 ± 0.1
TTTGGGGGGA | 1.05 ± 0.21
TTTGGGGGGT | 0.985 ± 0.02
TTTGGGGGTA | 1.06 ± 0.068
TTTGGGGGTC | 1.1 ± 0.24
TTTGGGGTCC | 1.07 ± 0.1
TTTGGGGTCG | 0.992 ± 0.034
TTTGGGGTTT | 1.07 ± 0.24
TTTGGGTATT | 0.9684 ± 0.0013
TTTGGGTCTC | 0.998 ± 0.019

Sequence | switch fluorescence ratio
TTTGGGTGGA | 1.02 ± 0.05
TTTGGGTTAC | 1.04 ± 0.044
TTTGGGTTCA | 0.972 ± 0.026
TTTGGGTTCC | 1.44 ± 0.35
TTTGGTCATA | 0.983 ± 0.024
TTTGGTCGC | 0.9851 ± 0.0012
TTTGGTGACG | 1.09 ± 0.029
TTTGGTGTCT | 0.96 ± 0.025
TTTGGTTAAT | 0.959 ± 0.027
TTTGGTTAGT | 0.991 ± 0.023
TTTGGTTGAA | 1.03 ± 0.088
TTTGGTTGAC | 1.02 ± 0.053
TTTGGTTTGG | 1.01 ± 0.036
TTTGTAAAAT | 0.99 ± 0.021
TTTGTACAAC | 1.01 ± 0.05
TTTGTACCGT | 1.06 ± 0.1
TTTGTACTTC | 1.02 ± 0.049
TTTGTATATT | 1.01 ± 0.053
TTTGTATGGA | 0.973 ± 0.011
TTTGTATTGG | 0.998 ± 0.035
TTTGTCAGAC | 1.03 ± 0.054
TTTGTCATTC | 1 ± 0.0017
TTTGTCATTT | 0.98 ± 0.016
TTTGTCCTTT | 1.029 ± 0.0084
TTTGTCGCCG | 1.01 ± 0.029

Sequence | switch fluorescence ratio
TTTGTCGTAA | 0.999 ± 0.0014
TTTGTCTAGG | 0.994 ± 0.019
TTTGTGACAG | 1.02 ± 0.018
TTTGTGAGGA | 0.996 ± 0.034
TTTGTGATTA | 0.9954 ± 0.0093
TTTGTGGATG | 0.985 ± 0.03
TTTGTGGCTA | 1.03 ± 0.031
TTTGTGGGGG | 1.01 ± 0.041
TTTGTGGTCT | 0.991 ± 0.032
TTTGTGTTG | 0.977 ± 0.024
TTTGTGTTGT | 1.015 ± 0.0099
TTTGTTAAGC | 0.973 ± 0.061
TTTGTTAGA | 0.988 ± 0.012
TTTGTTAGCA | 0.98708 ± 0.0008
TTTGTTAGGC | 0.991 ± 0.029
TTTGTTAGGG | 0.994 ± 0.022
TTTGTTCACT | 0.989 ± 0.041
TTTGTTCATT | 0.953 ± 0.019
TTTGTTCGGT | 1.01 ± 0.013
TTTGTTCTT | 1 ± 0.014
TTTGTTGCA | 1.02 ± 0.011
TTTGTTGGCA | 0.986 ± 0.024
TTTGTTTATC | 1.02 ± 0.057
TTTGTTTCGA | 1.05 ± 0.11
TTTGTTTGG | 1 ± 0.017

Sequence | switch fluorescence ratio
TTTGTTTGGA | 1.01 ± 0.046
TTTGTTTTAC | 1.18 ± 0.21
TTTGTTTTTA | 1.02 ± 0.041
TTTGTTTTTG | 1 ± 0.026
TTTTAAAAGT | 1 ± 0.03
TTTTAAAGGT | 1.01 ± 0.024
TTTTAAATGC | 1.07 ± 0.13
TTTTAAATGG | 1.06 ± 0.052
TTTTAACCGA | 1.08 ± 0.034
TTTTAACTAA | 1.005 ± 0.0046
TTTTAAGAGG | 1.01 ± 0.046
TTTTAAGGCA | 1.03 ± 0.031
TTTTAAGGTA | 0.996 ± 0.026
TTTTAAGGTC | 1.019 ± 0.0034
TTTTAAGTCT | 1.02 ± 0.0036
TTTTAAGTGG | 0.991 ± 0.023
TTTTAAGTGT | 1 ± 0.045
TTTTAATCCA | 1.01 ± 0.033
TTTTAATGCA | 0.977 ± 0.018
TTTTAATTTC | 0.955 ± 0.14
TTTTACCCGT | 1.01 ± 0.013
TTTTACCGTT | 1.02 ± 0.015
TTTTACGATG | 1 ± 0.012
TTTTACGTGG | 0.9938 ± 0.0019
TTTTACGTTA | 1.23 ± 0.11

Sequence | switch fluorescence ratio
TTTTACGTTT | 1.04 ± 0.12
TTTTACTTCT | 1.04 ± 0.062
TTTTAGAAAT | 1.98 ± 1.3
TTTTAGAAGG | 0.9797 ± 0.0062
TTTTAGAGTA | 1.003 ± 0.009
TTTTAGATAG | 1.06 ± 0.11
TTTTAGATGG | 1.2 ± 0.2
TTTTAGCTGG | 1 ± 0.015
TTTTAGGGTA | 1.03 ± 0.017
TTTTAGGTAG | 0.99 ± 0.0029
TTTTAGGTGT | 1.28 ± 0.26
TTTTAGTACT | 0.99 ± 0.036
TTTTAGTAGT | 1.008 ± 0.01
TTTTAGTTCC | 1.05 ± 0.018
TTTTAGTTCT | 1.25 ± 0.42
TTTTAGTTGG | 0.954 ± 0.038
TTTTAGTTTT | 1 ± 0.031
TTTTATAATG | 1.038 ± 0.0011
TTTTATAT | 0.98 ± 0.03
TTTTATATAC | 1.14 ± 0.076
TTTTATATGT | 1.02 ± 0.028
TTTTATCAAT | 1.003 ± 0.0076
TTTTATCTGT | 1.01 ± 0.091
TTTTATGAAA | 0.997 ± 0.012
TTTTATGAAG | 1.04 ± 0.02

Sequence | switch fluorescence ratio
TTTTATGCGA | 1.01 ± 0.02
TTTTATGGGC | 1.01 ± 0.025
TTTTATGTCA | 1.03 ± 0.051
TTTTATTTTT | 0.997 ± 0.028
TTTTCAACAC | 1.04 ± 0.033
TTTTCAAGTA | 0.9789 ± 0.0094
TTTTCAAGTC | 1.05 ± 0.15
TTTTCACTGG | 1.01 ± 0.017
TTTTCAGTAG | 0.9996 ± 0.0039
TTTTCATCGC | 1.18 ± 0.18
TTTTCATGAT | 0.991 ± 0.022
TTTTCATGGT | 1.01 ± 0.035
TTTTCATGTG | 0.995 ± 0.027
TTTTCATTAC | 1.26 ± 0.069
TTTTCCAAGG | 1.06 ± 0.031
TTTTCCAATG | 1.02 ± 0.017
TTTTCCACGG | 1.21 ± 0.16
TTTTCCATTT | 0.99 ± 0.023
TTTTCCCATT | 1.02 ± 0.075
TTTTCCCGAA | 0.967 ± 0.026
TTTTCCCGGG | 1.13 ± 0.15
TTTTCCTGCT | 1.07 ± 0.082
TTTTCGACTA | 0.97 ± 0.043
TTTTCGATTT | 1.42 ± 1
TTTTCGCTAT | 2.29 ± 1.6

Sequence | switch fluorescence ratio
TTTTCGGCTC | 1.04 ± 0.048
TTTTCGGGAT | 1.19 ± 0.42
TTTTCGGTTT | 1 ± 0.051
TTTTCGTCCT | 1.18 ± 0.18
TTTTCGTGTT | 1 ± 0.032
TTTTCGTTTT | 1.04 ± 0.082
TTTTCTGAGG | 1.01 ± 0.044
TTTTCTTGAA | 0.9852 ± 0.0038
TTTTCTTTGC | 1.03 ± 0.042
TTTTCTTTTT | 1.06 ± 0.14
TTTTGAAGTG | 1.02 ± 0.034
TTTTGAAGTT | 1 ± 0.039
TTTTGAATCT | 0.953 ± 0.033
TTTTGAATTG | 0.9841 ± 0.005
TTTTGACAGT | 0.996 ± 0.039
TTTTGACATT | 1.05 ± 0.032
TTTTGACCGA | 0.976 ± 0.073
TTTTGACGAG | 1.016 ± 0.0033
TTTTGACGTT | 1.04 ± 0.042
TTTTGAGATA | 0.97489 ± 3.4e-05
TTTTGAGGAC | 1.034 ± 0.0035
TTTTGAGGGA | 0.9877 ± 0.002
TTTTGATAGT | 0.991 ± 0.026
TTTTGATCCG | 1.09 ± 0.082
TTTTGATTCT | 1.01 ± 0.028

Sequence | switch fluorescence ratio
TTTTGCAAAT | 1.13 ± 0.11
TTTTGCACTT | 1.022 ± 0.0012
TTTTGCAGGA | 1.05 ± 0.14
TTTTGCATTG | 1.07 ± 0.058
TTTTGCCGTT | 1.01 ± 0.019
TTTTGCGAAC | 1.94 ± 1.2
TTTTGCGATT | 1.015 ± 0.0065
TTTTGCGCCG | 1.06 ± 0.06
TTTTGCGGGA | 1.01 ± 0.057
TTTTGCGTCT | 1.06 ± 0.071
TTTTGCTGTA | 1.04 ± 0.099
TTTTGCTTGT | 0.996 ± 0.015
TTTTGCTTTT | 0.998 ± 0.027
TTTTGGAACG | 0.99 ± 0.031
TTTTGGAAGC | 1.03 ± 0.034
TTTTGGAAGT | 0.993 ± 0.042
TTTTGGACGC | 1.26 ± 0.43
TTTTGGATAA | 1.016 ± 0.0051
TTTTGGATGC | 1.05 ± 0.045
TTTTGGCAAC | 1.04 ± 0.079
TTTTGGCCGT | 1.1 ± 0.15
TTTTGGCCTT | 0.997 ± 0.015
TTTTGGCGCA | 1.01 ± 0.0046
TTTTGGCGCT | 1.005 ± 0.008
TTTTGGCGTA | 1.04 ± 0.037
